Measured values taken from patent publication US20260234220A1 (OSPEDALE SAN RAFFAELE S R L, published 2026).

B1: IgG BU.7 (antibody, V domains shown)
VH: LEWGPGLVKPSETLSLTCTVSGGSISSINYYWVWIRQPPGKGLEWIGNINYSGTTNYNPSLKSRVTISVDTSKNQFSLKLSSVTAADTAVYYCARQTYYYDRRGYYRPEPIEHWGQGTLVTVSS
VL: ELVMTQSPSFLSASVGDRVTITCRASQDVRSFLHWYQQRPGKAPKLLIYAASMVSSEVPSRFSGSGSETDFTLTIDGLQPEDVATYFCQQTYDTPLTFGGGTAVDIK
B2: IgG BU.54 (antibody, V domains shown)
VH: LEWGPGLVKASQTLSLTCTVSGGSISSRNFYWSWIRQPGGKGLEWIGRIYTSGSTNYNPSLKSRVTISLDTSKSQFSLKLSSVTAADTAVYYCARGTFYYDRSGNGRLDPLDYWGQGTLVTVS
VL: ELVMTQSPSSLSASVGDRVTITCQASQDISNYLNWYQQKPGKAPKLLIYDASNLETGVPSRFSGSGFGTHFTLTISSLQPEDFATYYCQQHDNLVTFGGGTKVEIK

Target: S protein of SARS-CoV-1 on pseudotyped particles (SARS-CoV-1, UniProt P59594 14-1255)
Experiment: cell-based or functional assay

Binder	neutralizing activity expressed as IC50 µg/ml (pseudovirus, luciferase) [µg/mL]
B1	1.3
B2	0.4
